Assay results taken from patent US11198713B2, “Agents modulating beta-catenin functions and methods thereof” (FOG PHARMACEUTICALS, INC., priority 2017, dated 2021).
One block for each binder: values may come before it. Numbered stars: 1 amine (or outer) side, 2 acyl side, 3 side chain; on linkers, the order of the positions; unused ones are H or OH. Bridge positions count the residues as written; N and C are the ends. Square brackets hold non-standard residues; d marks the D form. Primed or numbered codes have the meaning given here. * marks the point of attachment. MB(4) = Monomer B (PyrS), N-Alloc pyrrolidine stapling residue, (S)-3-amino-1-(allyloxycarbonyl)pyrrolidine-3-carboxylic acid, C=CCOC(=O)N1CC[C@@](N[*:1])(C(=O)[*:2])C1; MC″ = Monomer C = PyrR, pyrrolidine stapling residue bearing Alloc (allyl carbamate on pyrrolidine N); R6″ = stapling residue, (R)-2-(5-hexenyl)alanine (drawn only), C=CCCCC[C@@](C)(N[*:1])C(=O)[*:2]; MB = Monomer B = PyrS, Alloc-pyrrolidine stapling residue (allyl carbamate on pyrrolidine N); MB(15) = Monomer B = PyrS (PS), pyrrolidine stapling residue (Alloc on ring N); R6 = (R)-2-(5-hexenyl)alanine, C=CCCCC[C@@](C)(N[*:1])C(=O)[*:2]; S6 = (S)-2-(5-hexenyl)alanine, C=CCCCC[C@](C)(N[*:1])C(=O)[*:2]; MF = Monomer F (SdN), acyclic alkyl-N(Alloc) stapling residue; Biotin = O=C1N[C@H]2[C@H](CS[C@H]2CCCCC(=O)*)N1; Arg(Me2a) = CN(C)C(=N)NCCC[C@H](N)C(=O)O; PEG3′ = PEG3 linker, CAS# 557756-85-1; R8 = C=CCCCCCC[C@@](C)(N)C(=O)O; S8 = C=CCCCCCC[C@](C)(N)C(=O)O; R5 = C=CCCC[C@@](C)(N)C(=O)O; Aib = CC(C)(N)C(=O)O

Target: T1, full-length beta-catenin (UniProt P35222 2-781, limits assumed)
T1 construct: mature; also called full-length ß-Catenin; β-catenin
T1 sequence (looked up): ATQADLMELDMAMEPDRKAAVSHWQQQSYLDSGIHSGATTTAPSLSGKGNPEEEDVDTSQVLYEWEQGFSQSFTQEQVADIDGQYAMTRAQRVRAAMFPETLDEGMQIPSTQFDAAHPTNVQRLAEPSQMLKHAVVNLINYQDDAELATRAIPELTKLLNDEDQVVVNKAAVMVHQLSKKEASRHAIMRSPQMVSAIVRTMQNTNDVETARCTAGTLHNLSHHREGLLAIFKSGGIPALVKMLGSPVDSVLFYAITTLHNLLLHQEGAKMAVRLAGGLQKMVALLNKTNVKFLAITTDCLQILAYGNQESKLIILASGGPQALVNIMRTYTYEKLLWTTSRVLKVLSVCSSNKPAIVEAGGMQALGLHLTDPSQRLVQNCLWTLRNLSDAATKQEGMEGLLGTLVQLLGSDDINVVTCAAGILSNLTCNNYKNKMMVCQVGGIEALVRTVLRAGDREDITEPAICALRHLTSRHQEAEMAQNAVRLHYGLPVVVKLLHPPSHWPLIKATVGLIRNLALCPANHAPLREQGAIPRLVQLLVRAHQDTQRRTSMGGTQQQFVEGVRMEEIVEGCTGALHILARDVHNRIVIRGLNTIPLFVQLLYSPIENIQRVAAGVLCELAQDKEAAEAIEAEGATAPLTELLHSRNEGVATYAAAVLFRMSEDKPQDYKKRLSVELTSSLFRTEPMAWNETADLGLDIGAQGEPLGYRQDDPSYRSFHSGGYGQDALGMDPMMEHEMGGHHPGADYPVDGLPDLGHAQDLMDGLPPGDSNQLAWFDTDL
Assay: competition FP, grade of FP EC50 (+++: <=100 nM)
Protocol: In some embodiments, a competition fluorescence polarization assay is used to assess binding of provided compounds to beta-catenin. In an exemplary procedure, solutions of provided compounds, e.g., provided stapled peptides, were prepared in a buffer (e.g., 50 mM Tris pH 8.0, 250 mM NaCl, 2% glycerol, 0.5 mM EDTA, 0.02% w/v sodium azide) using a 3-fold serial dilution from 5 µM. Probe solution (15 nM full-length ß-Catenin, 20 nM FITC labeled peptide in buffer) was prepared and incubated for a period of time, e.g., 5 minutes, and the a volume, e.g., 40 µL per well plated in suitable plate, e.g., a black polystyrene 384-well plate (Corning). Equal volume of the serial diluted peptide was added to the plate and incubated protected from light for 15 minutes prior to read. Reads were performed on a Spectramax M5 (Molecular Devices) in duplicate. Suitable probe was FITC-PEG1-PQ-S5-ILD-S5-HVRRVWR (SEQ ID NO: 1) (hydrocarbon staple formed by two S5 via olefin metathesis) and/or FITC-bA-PQ-S5-ILD-S5-HVRRVWR (SEQ ID NO: 3) (hydrocarbon staple formed by two S5 via olefin metathesis). […] Another peptide, FPO217c (Ac-AR_8ILDAHIM$B5$RVW (SEQ ID NO: 280), with N-terminal proline removed and valine replaced with isoleucine compared to FP0025c) was prepared.

B2: FP0217c_btn (peptide)
peptide: {Biotin-PEG3′}-A[R8]ILDAHI[MB]RVW-NH2
modifications: staple 2-9
- FP EC50: ≤ 100 nM

B4: FP0604c (peptide)
peptide: AXILDAHIXRVW
modifications: not fully specified; Ac-A-ME-I-L-D-A-H-I-MB-R-V-W-NH2; carbamate staple ME/MB
- FP EC50: ≤ 100 nM

B5: FP0645c (peptide)
peptide: Ac-A[R8]ILD[Aib]HI[MB(15)]RVW-NH2
modifications: staple 2-9
- FP EC50: ≤ 100 nM

B6: FP0510c Isomer 1 (peptide)
peptide: AXILDAHIXRVW
modifications: not fully specified; Ac-A-R5-I-L-D-A-H-I-MH-R-V-W-NH2; carbamate staple R5/MH
- FP EC50: ≤ 100 nM

B8: FP0510c Isomer 2 (peptide)
peptide: Ac-A[R5]ILDAHI[MH]RVW-NH2
modifications: staple 2-9; not fully specified; printed as Ac-A-R5-I-L-D-A-H-I-MH-R-V-W-NH2
- FP EC50: ≤ 100 nM

B9: FP0601c (peptide)
peptide: AXILDAHIXRVW
modifications: not fully specified; Ac-A-ME-I-L-D-A-H-I-MF-R-V-W-NH2; carbamate staple ME/MF
- FP EC50: ≤ 100 nM

B10: FP0006a (peptide)
peptide: Ac-PA[MC″]ILDAHV[S8]RVW-NH2
modifications: staple 3-10; also: amino staple: carbamate CO2 extruded after metathesis, staple: amino staple (-N(R')-, CO2 extruded from carbamate staple)
- FP EC50: ≤ 100 nM

B11: FP0511c Isomer 1 (peptide)
peptide: Ac-A[R6″]ILDAHI[MH]RVW-NH2
modifications: staple 2-9; not fully specified; printed as Ac-A-R6-I-L-D-A-H-I-MH-R-V-W-NH2
- FP EC50: ≤ 100 nM

B14: FP0502c Isomer 1 (peptide)
peptide: Ac-A[R6]ILDAHI[MF]RVW-NH2
modifications: staple 2-9; also: carbamate staple, isomer 1, olefin geometry not assigned
notes: also called FP0502c (Peak 1)
- FP EC50: ≤ 100 nM

B15: FP0611c (peptide)
peptide: AXILDAHIXRVW
modifications: not fully specified; Ac-A-MA-I-L-D-A-H-I-MF-R-V-W-NH2; carbamate staple MA/MF
- FP EC50: ≤ 100 nM

Other lines, results leading:

- FP EC50: ≤ 100 nM
B1: FP0217s Isomer 1 (peptide)
peptide: AXILDAHIXRVW
modifications: not fully specified; Ac-A-R8-I-L-D-A-H-I-S5-R-V-W-NH2; hydrocarbon staple R8/S5

- FP EC50: ≤ 100 nM
B3: FP0507a (peptide)
peptide: Ac-A[MI]ILDAHI[S6]RVW-NH2
modifications: staple 2-9; also: amino staple MI/S6 (-N(R')-, after CO2 extrusion from carbamate staple), olefin E/Z not given here

- FP EC50: ≤ 100 nM
B7: FP0616c (peptide)
peptide: AXILDAHIXRVW
modifications: not fully specified; Ac-A-MA-I-L-D-A-H-I-MC-R-V-W-NH2; carbamate staple MA/MC

- FP EC50: ≤ 100 nM
B12: FP0639c (peptide)
peptide: Ac-A[R8]ILDAHI[MB(4)][Arg(Me2a)]VW-NH2
modifications: staple 2-9

- FP EC50: ≤ 100 nM
B13: FP0511c Isomer 2 (peptide)
peptide: Ac-A[R6″]ILDAHI[MH]RVW-NH2
modifications: staple 2-9; not fully specified; printed as Ac-A-R6-I-L-D-A-H-I-MH-R-V-W-NH2

- FP EC50: ≤ 100 nM
B16: FP0217s Isomer 2 (peptide)
peptide: AXILDAHIXRVW
modifications: not fully specified; Ac-A-R8-I-L-D-A-H-I-S5-R-V-W-NH2; hydrocarbon staple R8/S5
